Experimental data published in US20180127513A1 (published 2018).

B1: CD73.10-IgG2-C219S (antibody)
heavy: QVQLVESGGGVVQPGRSLRLSCAASGFTFSNYGMHWVRQAPGKGLEWVAVIWYDESNKYYPDSVKGRFTISRDNSKNTLYLQMNSLRAEDTAVYYCARGGSSWYPDSFDIWGQGTMVTVSSASTKGPSVFPLAPCSRSTSESTAALGCLVKDYFPEPVTVSWNSGALTSGVHTFPAVLQSSGLYSLSSVVTVPSSNFGTQTYTCNVDHKPSNTKVDKTVERKSCVECPPCPAPPVAGPSVFLFPPKPKDTLMISRTPEVTCVVVDVSHEDPEVQFNWYVDGVEVHNAKTKPREEQFNSTFRVVSVLTVVHQDWLNGKEYKCKVSNKGLPAPIEKTISKTKGQPREPQVYTLPPSREEMTKNQVSLTCLVKGFYPSDIAVEWESNGQPENNYKTTPPMLDSDGSFFLYSKLTVDKSRWQQGNVFSCSVMHEALHNHYTQKSLSLSPG
light: not shown
B2: 11F11 (antibody, V domains shown)
VH: QVQLVESGGGVVQPGRSLRLSCATSGFTFSNYGMHWVRQAPGKGLEWVAVILYDGSNKYYPDSVKGRFTISRDNSKNTLYLQMNSLRAEDTAVYYCARGGSSWYPDSFDIWGQGTMVTVSS
VL: DIQMTQSPSSLSASVGDRVTITCRASQGISSWLAWYQQKPEKAPKSLIYAASSLQSGVPSRFSGSGSGTDFTLTISSLQPEDFATYYCQQYNSYPLTFGGGTKVEIKR
B3: CD73.4-IgG2-C219S-IgG1.1f (antibody)
heavy: QVQLVESGGGVVQPGRSLRLSCAASGFTFSNYGMHWVRQAPGKGLEWVAVILYDGSNKYYPDSVKGRFTISRDNSKNTLYLQMNSLRAEDTAVYYCARGGSSWYPDSFDIWGQGTMVTVSSASTKGPSVFPLAPCSRSTSESTAALGCLVKDYFPEPVTVSWNSGALTSGVHTFPAVLQSSGLYSLSSVVTVPSSNFGTQTYTCNVDHKPSNTKVDKTVERKSCVECPPCPAPPVAGPSVFLFPPKPKDTLMISRTPEVTCVVVDVSHEDPEVKFNWYVDGVEVHNAKTKPREEQYNSTYRVVSVLTVLHQDWLNGKEYKCKVSNKALPSSIEKTISKAKGQPREPQVYTLPPSREEMTKNQVSLTCLVKGFYPSDIAVEWESNGQPENNYKTTPPVLDSDGSFFLYSKLTVDKSRWQQGNVFSCSVMHEALHNHYTQKSLSLSPG
light: not shown
modifications: N-terminal Gln 94% pyro-Q; 97% of heavy chains lack the C-terminal Lys
B4: CD73.4-IgG2-C219S (antibody)
heavy: QVQLVESGGGVVQPGRSLRLSCAASGFTFSNYGMHWVRQAPGKGLEWVAVILYDGSNKYYPDSVKGRFTISRDNSKNTLYLQMNSLRAEDTAVYYCARGGSSWYPDSFDIWGQGTMVTVSSASTKGPSVFPLAPCSRSTSESTAALGCLVKDYFPEPVTVSWNSGALTSGVHTFPAVLQSSGLYSLSSVVTVPSSNFGTQTYTCNVDHKPSNTKVDKTVERKSCVECPPCPAPPVAGPSVFLFPPKPKDTLMISRTPEVTCVVVDVSHEDPEVQFNWYVDGVEVHNAKTKPREEQFNSTFRVVSVLTVVHQDWLNGKEYKCKVSNKGLPAPIEKTISKTKGQPREPQVYTLPPSREEMTKNQVSLTCLVKGFYPSDIAVEWESNGQPENNYKTTPPMLDSDGSFFLYSKLTVDKSRWQQGNVFSCSVMHEALHNHYTQKSLSLSPG
light: not shown
B5: CD73.10-IgG2-C219S-IgG1.1f (antibody)
heavy: QVQLVESGGGVVQPGRSLRLSCAASGFTFSNYGMHWVRQAPGKGLEWVAVIWYDESNKYYPDSVKGRFTISRDNSKNTLYLQMNSLRAEDTAVYYCARGGSSWYPDSFDIWGQGTMVTVSSASTKGPSVFPLAPCSRSTSESTAALGCLVKDYFPEPVTVSWNSGALTSGVHTFPAVLQSSGLYSLSSVVTVPSSNFGTQTYTCNVDHKPSNTKVDKTVERKSCVECPPCPAPPVAGPSVFLFPPKPKDTLMISRTPEVTCVVVDVSHEDPEVKFNWYVDGVEVHNAKTKPREEQYNSTYRVVSVLTVLHQDWLNGKEYKCKVSNKALPSSIEKTISKAKGQPREPQVYTLPPSREEMTKNQVSLTCLVKGFYPSDIAVEWESNGQPENNYKTTPPVLDSDGSFFLYSKLTVDKSRWQQGNVFSCSVMHEALHNHYTQKSLSLSPG
light: not shown

Biological target: T1, human CD73 on cells (UniProt P21589 27-549)
T1 chain: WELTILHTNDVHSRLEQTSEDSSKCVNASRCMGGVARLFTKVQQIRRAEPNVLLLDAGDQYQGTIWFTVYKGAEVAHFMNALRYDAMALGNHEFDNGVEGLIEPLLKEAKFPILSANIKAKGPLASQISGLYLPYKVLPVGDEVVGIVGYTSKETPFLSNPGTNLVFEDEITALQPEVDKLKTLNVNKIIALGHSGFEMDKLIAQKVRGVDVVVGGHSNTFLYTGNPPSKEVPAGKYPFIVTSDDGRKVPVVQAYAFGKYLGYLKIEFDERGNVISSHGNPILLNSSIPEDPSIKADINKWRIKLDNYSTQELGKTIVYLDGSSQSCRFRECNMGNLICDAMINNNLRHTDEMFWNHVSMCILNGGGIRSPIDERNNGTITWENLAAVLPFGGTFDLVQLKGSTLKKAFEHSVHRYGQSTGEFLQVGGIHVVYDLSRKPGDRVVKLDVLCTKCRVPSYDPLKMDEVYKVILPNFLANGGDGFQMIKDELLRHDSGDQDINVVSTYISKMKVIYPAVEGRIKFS
Assay: FACS cell binding; Calu6 cells

Row | Binder | Kd [µg/mL]
1 | B1 | 0.162
2 | B2 | 0.188
3 | B3 | 0.0964
4 | B4 | 0.0826
5 | B5 | 0.156
